From patent publication US11753455B2, “Compounds for treatment of obesity” (Novo Nordisk A/S, priority 2018, dated 2023)

Test system: brain regions of mice (C57BL/6J)
Test: In vivo imaging of fluorescently labelled GLP-1 Fab fusion proteins in brain (LSFM)
Details: single i.v. dose 120 nmol/kg, 6 hours
Protocol: The two fusion proteins include one and the same GLP-1 receptor agonist compound but differ in the Fab part. […] The study is an acute study in mice.
The mice were anesthetised with isoflurane 6 hours (“6H”) following administration of compound and euthanised by transcardiac perfusion with 10 ml heparinised (10 U/ml) saline followed by 10 ml 10% neutral buffered formalin (NBF). Brains were removed and immersed into 10% NBF and stored at 4° C. O/N until further processed.
The brains were dehydrated and saturated in dibenzyl ether (DBE) to minimise scattering of light during scanning by removal of water, and by matching of the refractive index. Brain tissue was dehydrated at room temperature in graded tetrahydrofuran (THF) diluted in demineralised H2O (w/v) 50/80/96/99%/2×100% 6-12 hours for each step. The brains were then cleared at room temperature in 3×DBE for 6-12 hours each step.
Brain samples were scanned using an UltraMicroscope II LSFM system (Lavision Biotec, Bielefeld, Germany) in 10.32 μm isotropic resolution. Data acquisition was performed using a 620/60 nm excitation filter and 680/30 nm emission filter for imaging autofluorescence, and a 710/75 nm excitation filter and 780/40 nm emission filter for imaging specific signals.
Images are single plane images of a z plane (2D). Spectral unmixing was performed to minimise the contribution of tissue auto-fluorescence in the images of the specific signals presented. The unmixing was carried out in Imaris (Release 7.6.5, Zurich, Switzerland) on imported tiff-files. The estimated auto-fluorescence contribution in the specific channel was calculated and removed based on ratios of voxel intensities between selected voxels in the unspecific recording and the corresponding voxels in the specific channel. A ratio was computed for 40 sets of voxels selected based on the histogram of the unspecific recording. The unmixing algorithm was written in Matlab (Release 2012b, Math Works, Natick, Massachusetts, United States) and applied as a XT-plugin in Imaris.
Images were registered to a common reference atlas space for visualisation and quantification using the Elastix software library version 4 (Klein, Stefan, et al. “Elastix: a toolbox for intensity-based medical image registration.” IEEE transactions on medical imaging 29.1 (2010): 196-205). A source image IS(x) was registered to the target atlas image IT(x) by finding a coordinate transformation T(x) that made IS(T(x)) spatially aligned with IT(x). […] Quantification was performed by summation of the unmixed intensity value of all voxels within the individual brain regions, indicating the total fluorescence signal from the compounds in these regions. […] The total signal thus indicates the total fluorescence signal from the compounds in these regions. […]

[1] = active vs inactive TfR compound

B1: Example 8: VivoTag750 fluorescence labelled GLP-1 anti TfR-Fab fusion protein of Example 6 (conjugate)
chain: HGEGTFTSDVSSYLEEQAAREFIAWLVKGRPGGGSGGGSGGGSGGGSDIQMTQSPASLSASLEEIVTITCQASQDIGNWLAWYQQKPGKSPQLLIYGATSLADGVPSRFSGSRSGTQFSLKISRVQVEDIGIYYCLQAYNTPWTFGGGTKLELKRADAAPTVSIFPPSSEQLTSGGASVVCFLNNFYPKDINVKWKIDGSERQNGVLNSWTDQDSKDSTYSMSSTLTLTKDEYERHNSYTCEATHKTSTSPIVKSFNRNECEVQLVESGGGLVQPGNSLTLSCVASGFTFSNYGMHWIRQAPKKGLEWIAMIYYDSSKMNYADTVKGRFTISRDNSKNTLYLEMNSLRSEDTAMYYCAVPTSHYVVDVWGQGVSVTVSSAKTTPPSVYPLAPGSAAQTNSMVTLGCLVKGYFPEPVTVTWNSGSLSSGVHTFPAVLQSDLYTLSSSVTVPSSTWPSETVTCNVAHPASSTKVDKKIVPRDCGHHHHHHHHHH
modifications: VivoTag750 fluorescent label; GLP-1 anti TfR-fab fusion protein; DISULFID (70)..(135); DISULFID (181)..(241); DISULFID (261)..(481); DISULFID (283)..(357); DISULFID (407)..(461)
Question: B1 was tested. Which “total fluorescence signal in brain regions that do not express the GLP-1R (FIG. 16D)” value [1] did it give?
Answer: The value was “slightly higher”.

Question: What about the “total fluorescence signal in circumventricular organs expressing the GLP-1R but devoid of a BBB (FIG. 16B)” value [1] of the same molecule?
Answer: The value was “slightly higher”.

Question: What about the “total fluorescence signal in brain regions expressing the GLP-1R (FIG. 16A)” value (compared to GLP-1-Inactive TfR) of the same molecule?
Answer: The value was “higher”.

Question: What about the “total fluorescence signal in brain structures expressing the GLP-1R which are protected by the BBB (FIG. 16C)” value (compared to GLP-1-Inactive TfR) of the same molecule?
Answer: The value was “highly increased”.
